In paper doi:10.1101/2024.05.16.594476 (bioRxiv, 2024):

B1: Mtb RNAP α subunit (natural protein)
chain: MLISQRPTLSEDVLTDNRSQFVIEPLEPGFGYTLGNSLRRTLLSSIPGAAVTSIRIDGVLHEFTTVPGVKEDVTEIILNLKSLVVSSEEDEPVTMYLRKQGPGEVTAGDIVPPAGVTVHNPGMHIATLNDKGKLEVELVVERGRGYVPAVQNRASGAEIGRIPVDSIYSPVLKVTYKVDATRVEQRTDFDKLILDVETKNSISPRDALASAGKTLVELFGLARELNVEAEGIEIGPSPAEADHIASFALPIDDLDLTVRSYNCLKREGVHTVGELVARTESDLLDIRNFGQKSIDEVKIKLHQLGLSLKDSPPSFDPSEVAGYDVATGTWSTEGAYDEQDYAETEQL
B2: Mtb RNAP β subunit (natural protein)
chain: MLEGCILADSRQSKTAASPSPSRPQSSSNNSVPGAPNRVSFAKLREPLEVPGLLDVQTDSFEWLIGSPRWRESAAERGDVNPVGGLEEVLYELSPIEDFSGSMSLSFSDPRFDDVKAPVDECKDKDMTYAAPLFVTAEFINNNTGEIKSQTVFMGDFPMMTEKGTFIINGTERVVVSQLVRSPGVYFDETIDKSTDKTLHSVKVIPSRGAWLEFDVDKRDTVGVRIDRKRRQPVTVLLKALGWTSEQIVERFGFSEIMRSTLEKDNTVGTDEALLDIYRKLRPGEPPTKESAQTLLENLFFKEKRYDLARVGRYKVNKKLGLHVGEPITSSTLTEEDVVATIEYLVRLHEGQTTMTVPGGVEVPVETDDIDHFGNRRLRTVGELIQNQIRVGMSRMERVVRERMTTQDVEAITPQTLINIRPVVAAIKEFFGTSQLSQFMDQNNPLSGLTHKRRLSALGPGGLSRERAGLEVRDVHPSHYGRMCPIETPEGPNIGLIGSLSVYARVNPFGFIETPYRKVVDGVVSDEIVYLTADEEDRHVVAQANSPIDADGRFVEPRVLVRRKAGEVEYVPSSEVDYMDVSPRQMVSVATAMIPFLEHDDANRALMGANMQRQAVPLVRSEAPLVGTGMELRAAIDAGDVVVAEESGVIEEVSADYITVMHDNGTRRTYRMRKFARSNHGTCANQCPIVDAGDRVEAGQVIADGPCTDDGEMALGKNLLVAIMPWEGHNYEDAIILSNRLVEEDVLTSIHIEEHEIDARDTKLGAEEITRDIPNISDEVLADLDERGIVRIGAEVRDGDILVGKVTPKGETELTPEERLLRAIFGEKAREVRDTSLKVPHGESGKVIGIRVFSREDEDELPAGVNELVRVYVAQKRKISDGDKLAGRHGNKGVIGKILPVEDMPFLADGTPVDIILNTHGVPRRMNIGQILETHLGWCAHSGWKVDAAKGVPDWAARLPDELLEAQPNAIVSTPVFDGAQEAELQGLLSCTLPNRDGDVLVDADGKAMLFDGRSGEPFPYPVTVGYMYIMKLHHLVDDKIHARSTGPYSMITQQPLGGKAQFGGQRFGEMECWAMQAYGAAYTLQELLTIKSDDTVGRVKVYEAIVKGENIPEPGIPESFKVLLKELQSLCLNVEVLSSDGAAIELREGEDEDLERAAANLGINLSRNESASVEDLA
B3: Mtb RNAP σ^A (natural protein)
chain: MAATKASTATDEPVKRTATKSPAASASGAKTGAKRTAAKSASGSPPAKRATKPAARSVKPASAPQDTTTSTIPKRKTRAAAKSAAAKAPSARGHATKPRAPKDAQHEAATDPEDALDSVEELDAEPDLDVEPGEDLDLDAADLNLDDLEDDVAPDADDDLDSGDDEDHEDLEAEAAVAPGQTADDDEEIAEPTEKDKASGDFVWDEDESEALRQARKDAELTASADSVRAYLKQIGKVALLNAEEEVELAKRIEAGLYATQLMTELSERGEKLPAAQRRDMMWICRDGDRAKNHLLEANLRLVVSLAKRYTGRGMAFLDLIQEGNLGLIRAVEKFDYTKGYKFSTYATWWIRQAITRAMADQARTIRIPVHMVEVINKLGRIQRELLQDLGREPTPEELAKEMDITPEKVLEIQQYAREPISLDQTIGDEGDSQLGDFIEDSEAVVAVDAVSFTLLQDQLQSVLDTLSEREAGVVRLRFGLTDGQPRTLDEIGQVYGVTRERIRQIESKTMSKLRHPSRSQVLRDYLD

Columns and labels:
[1] = biological target: B1; test: cryo-EM structure
[2] = biological target: T1, Mtb PhoP, phosphorylated with acetyl phosphate (AcP) (Mycobacterium tuberculosis, UniProt P71814 1-247); test: cryo-EM structure
[3] = biological target: B2; test: cryo-EM structure
[4] = biological target: B3; test: cryo-EM structure
[5] = biological target: T1, Mtb PhoP, phosphorylated with acetyl …; test: […]

Binder | binding result [1] | binding result [2] | binding result [3] | binding result [4] | binding result [5]
Mtb GlnR, the nitrogen metabolism regulator (natural protein) MLELLLLTSELYPDPVLPALSLLPHTVRTAPAEASSLLEAGNADAVLVDARNDLSSGRGLCRLLSSTGRSIPVLAVVSEGGLVAVSADWGLDEILLLSTGPAEIDARLRLVVGRRGDLADQESLGKVSLGELVIDEGTYTARLRGRPLDLTYKEFELLKYLAQHAGRVFTRAQLLHEVWGYDFFGGTRTVDVHVRRLRAKLGPEHEALIGTVRNVGYKAVRPARGRPPAADPDDEDADPGRDGMQEPLVDPLRSQ | binds | binds | binds | binds | 
B1 |  |  |  |  | binds
B2 |  |  |  |  | binds
B3 |  |  |  |  | binds
